{"source": "paper PMC10400533", "about": "“Exploring the G-quadruplex binding and unwinding activity of the bacterial FeS helicase DinG”", "binders": {"B1": {"name": "DNA-fork (D1/D2) (dsDNA)", "DNA 1": "CTACTACCCCCACCCTCACAACCTTTTTTTTTTTTTT", "DNA 2": "TTTTTTTTTTTTTTGGTTGTGAGGGTGGGGGTAGTAG"}}, "key": {"DinG helicase [1]": {"biological_target": "T1, DinG helicase (Escherichia coli, UniProt P27296 1-716)", "T1 sequence": "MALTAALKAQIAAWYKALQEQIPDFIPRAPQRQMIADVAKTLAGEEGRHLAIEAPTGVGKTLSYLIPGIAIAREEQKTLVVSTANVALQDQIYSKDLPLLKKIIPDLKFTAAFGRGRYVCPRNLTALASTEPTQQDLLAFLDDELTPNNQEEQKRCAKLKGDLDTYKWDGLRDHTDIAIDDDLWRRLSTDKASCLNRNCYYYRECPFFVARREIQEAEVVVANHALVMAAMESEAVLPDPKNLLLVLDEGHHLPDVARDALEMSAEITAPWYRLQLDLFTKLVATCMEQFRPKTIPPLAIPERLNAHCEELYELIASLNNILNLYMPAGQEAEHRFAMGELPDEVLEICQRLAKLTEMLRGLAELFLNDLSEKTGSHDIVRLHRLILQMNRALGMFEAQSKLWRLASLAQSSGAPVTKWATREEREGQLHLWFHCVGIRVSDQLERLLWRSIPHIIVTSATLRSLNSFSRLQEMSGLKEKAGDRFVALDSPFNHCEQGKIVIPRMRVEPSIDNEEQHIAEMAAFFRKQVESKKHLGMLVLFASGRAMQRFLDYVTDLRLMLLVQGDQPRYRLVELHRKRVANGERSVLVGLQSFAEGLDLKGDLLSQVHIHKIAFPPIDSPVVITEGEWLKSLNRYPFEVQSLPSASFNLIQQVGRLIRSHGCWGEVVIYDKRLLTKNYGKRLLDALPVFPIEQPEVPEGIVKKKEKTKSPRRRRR", "experiment": "SPR; SPR single-cycle kinetics, 25 C, DinG immobilized, DNA 0.062-1 uM; DNA prepared in 10 mM potassium phosphate, 50 mM KCl, pH 7.5; SPR running buffer not in material", "conditions": "protein: recombinant, tags: His-tag"}, "DinG helicase [2]": {"biological_target": "T1, DinG helicase", "experiment": "SPR; Netropsin; SPR single-cycle kinetics, 25 C, DinG immobilized, DNA 0.062-1 uM; DNA prepared in 10 mM potassium phosphate, 50 mM KCl, pH 7.5; SPR running buffer not in material", "conditions": "protein: recombinant; tags: His-tag; parallel unimolecular G4"}}, "data": [{"binder": "AGGGAGGGCGCTGGGAGGAGGG (structured_DNA)", "note": "[c-KIT1]", "values": [{"measurement": "Kd", "setting": "DinG helicase [1]; parallel unimolecular G4", "result": 28.9, "unit": "nM"}, {"measurement": "Kd", "setting": "DinG helicase [2]", "result": 31.5, "unit": "nM"}]}, {"binder": "GTGTGTGTGTGTGTGTGTGTGTGTGTGTGT (ssDNA)", "note": "[G-scramble]", "values": [{"measurement": "Kd", "setting": "DinG helicase [1]; no G4 or other secondary structure", "result": 126, "unit": "nM"}]}, {"binder": "GGGGCGGGGTGGGTTGG (structured_DNA)", "note": "[EC-9]", "values": [{"measurement": "Kd", "setting": "DinG helicase [1]; G4", "result": 34.9, "unit": "nM"}]}, {"binder": "GGGCGCGGGAGGAATTGGGCGGG (structured_DNA)", "note": "[BCL2]", "values": [{"measurement": "Kd", "setting": "DinG helicase [1]; hybrid [3+1] unimolecular G4", "result": 21, "unit": "nM"}]}, {"binder": "TAGGGTTAGGGTTAGGGTTAGGG (structured_DNA)", "note": "[Tel23]", "values": [{"measurement": "Kd", "setting": "DinG helicase [1]; hybrid [3+1] unimolecular G4", "result": 9.4, "unit": "nM"}]}, {"binder": "GGTGGGGAGGGGTAAGGGG (structured_DNA)", "note": "[EC-6]", "values": [{"measurement": "Kd", "setting": "DinG helicase [1]; G4", "result": 36.7, "unit": "nM"}]}, {"binder": "GGTGGGGGGGCGGGGGAGGCCGGG (structured_DNA)", "note": "[Zic1]", "values": [{"measurement": "Kd", "setting": "DinG helicase [1]; parallel G4", "result": 22.8, "unit": "nM"}]}, {"binder": "GGGTGGGTGGGTGGGT (structured_DNA)", "note": "[T30695]", "values": [{"measurement": "Kd", "setting": "DinG helicase [1]; dimeric parallel G4 of 2 strands", "result": 163, "unit": "nM"}]}, {"binder": "B1", "values": [{"measurement": "Kd", "setting": "DinG helicase [1]; fork 1:2, 23 bp duplex, 3' T14 tail on strand 1 and 5' T14 tail on strand 2", "result": 55.9, "unit": "nM"}]}, {"binder": "GGGGGAGGAGGACGGGGG (structured_DNA)", "note": "[EC-7]", "values": [{"measurement": "Kd", "setting": "DinG helicase [1]; G4", "result": 56.9, "unit": "nM"}]}, {"binder": "AGGGCGGTGTGGGAATAGGGAA (structured_DNA)", "note": "[KRAS]", "values": [{"measurement": "Kd", "setting": "DinG helicase [1]; parallel unimolecular G4", "result": 46.4, "unit": "nM"}]}, {"binder": "AGGGTGGGTAGGGTGGGT (structured_DNA)", "note": "[c-MYC]", "values": [{"measurement": "Kd", "setting": "DinG helicase [1]; parallel unimolecular G4", "result": 30.6, "unit": "nM"}]}]}
